The source of these data is patent EP4741426A1 (Leto Laboratories Co., Ltd, dated 2026).

In this experiment the target is T1, Fc-fused CD215 fragment.
T1 construct: also called CD215 fragment in L-unit (fused with hIgG4Fc); CD215 fragment fused with Fc
Put plainly: sandwich ELISA of the intact complex in mouse serum: one antibody captures the S-unit, the other detects the Fc portion. For orientation: In an ELISA, binding on a coated surface is turned into a signal by an enzyme label.

T1 sequence (chain, as listed by the source limits assumed): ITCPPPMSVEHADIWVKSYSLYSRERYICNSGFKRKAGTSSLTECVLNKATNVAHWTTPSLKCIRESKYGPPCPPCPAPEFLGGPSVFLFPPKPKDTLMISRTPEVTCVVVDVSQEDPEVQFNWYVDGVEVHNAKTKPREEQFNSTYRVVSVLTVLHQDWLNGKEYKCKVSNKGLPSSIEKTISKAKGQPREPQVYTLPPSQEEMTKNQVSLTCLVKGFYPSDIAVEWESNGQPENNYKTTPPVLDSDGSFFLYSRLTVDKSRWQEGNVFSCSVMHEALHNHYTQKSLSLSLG

B1: S-unit molecule (PM619) (ligand)
chain: APTSSSTKKTQLQLEHLLLDLQMILNGIQSMHIDATLYTESDVHPSCKVTAMKCFLLELQVISLESGDASIHDTVENLIILANNSLSSNGNVTESGCKECEELEEKNIVEFLNRFITFAQSIISTLT
notes: also called IL-2/15 chimera; modified IL-2 molecule
Take B1: the binding result is on record as “binds”.
